The results in this text go back to EP1708961B1 (Abbott Biotherapeutics Corp., dated 2011).

Assay [1] deals with T1, recombinant human IP-10 (human, UniProt P02778 22-98).
T1 construct: Bought from R&D Systems; also called CXCL10; rhIP-10
T1 sequence: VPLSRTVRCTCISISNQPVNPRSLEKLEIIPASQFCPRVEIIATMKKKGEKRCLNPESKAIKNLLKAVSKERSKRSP
Briefly: competition ELISA on coated human IP-10, competitor: biotinylated MuAIP12; Exp. B. For orientation: In an ELISA, binding on a coated surface is turned into a signal by an enzyme label.

For assay [2], the target named is T1, recombinant human IP-10. The assay can be described thus: Biacore (SPR). (In general: In SPR one partner is held on a chip, and binding of the other changes the refractive index at the surface.)
Assay [3] deals with T1, recombinant human IP-10. Briefly: cell-based or functional assay.
The target in assay [4] is T1, recombinant human IP-10. Briefly: competition ELISA on coated human IP-10, competitor: biotinylated MuAIP12; average.
Assay [5] concerns the target T1, recombinant human IP-10. Briefly: competition ELISA on coated human IP-10, competitor: biotinylated MuAIP12; Exp. C.
The target of assay [6] is T1, recombinant human IP-10. The assay can be described thus: competition ELISA on coated human IP-10, competitor: biotinylated MuAIP12; Exp. D.
In assay [7] the target is T1, recombinant human IP-10. The assay can be described thus: competition ELISA on coated human IP-10, competitor: biotinylated MuAIP12; Exp. A.
For assay [8], the target named is T1, recombinant human IP-10. The assay can be described thus: competition ELISA on coated human IP-10, competitor: biotinylated MuAIP13; Exp. B.
Assay [9] concerns the target T1, recombinant human IP-10. The assay can be described thus: competition ELISA on coated human IP-10, competitor: biotinylated MuAIP13; Exp. C.
Assay [10] has as its target T1, recombinant human IP-10. Briefly: competition ELISA on coated human IP-10, competitor: biotinylated MuAIP13; average.
Assay [11] deals with T1, recombinant human IP-10. The assay can be described thus: competition ELISA on coated human IP-10, competitor: biotinylated MuAIP13; Exp. A.
The target in assay [12] is T1, recombinant human IP-10. Briefly: Biacore 2000 (SPR).
Assay [13] deals with T1, recombinant human IP-10. The assay can be described thus: competition ELISA on human IP-10, competitor: AIP13.
The target in assay [14] is T1, recombinant human IP-10. The assay can be described thus: Biacore 2000 (SPR), antibody captured by goat anti-human IgG Fc, human IP-10 injected.
Assay [15] deals with T1, recombinant human IP-10. Briefly: competition ELISA on coated human IP-10; average.
In assay [16] the target is T1, recombinant human IP-10. The assay can be described thus: competition ELISA on coated human IP-10; Exp. A.
Assay [17] addresses T1, recombinant human IP-10. Briefly: competition ELISA on coated human IP-10; Exp. C.
Assay [18] has as its target T1, recombinant human IP-10. Briefly: Biacore (Table 3).
The target in assay [19] is T1, recombinant human IP-10. Briefly: competition ELISA on coated human IP-10; Exp. D.
Assay [20] deals with T1, recombinant human IP-10. The assay can be described thus: competition ELISA on coated human IP-10; Exp. B.
For assay [21], the target named is T1, recombinant human IP-10. Briefly: cell-based or functional assay. This is another data set of the same source.
The target of assay [22] is T1, recombinant human IP-10. Briefly: competition ELISA on coated human IP-10; Exp. A. The source holds these as a separate data set.
Assay [23] addresses T1, recombinant human IP-10. Briefly: competition ELISA on coated human IP-10; Exp. B. This is another data set of the same source.
For assay [24], the target named is T1, recombinant human IP-10. The assay can be described thus: competition ELISA on coated human IP-10; average. The source holds these as a separate data set.
Assay [25] has as its target T1, recombinant human IP-10. The assay can be described thus: competition ELISA on coated human IP-10; Exp. C. This is another data set of the same source.

Numbering of substitutions follows the chain as printed. Numbers in names are those of the source. Where “and” joins values, the source holds several entries; their conditions need not be identical. Equal values may be shown once. Bounds are passed on as bounds.

B1: murine monoclonal antibody AIP12 (antibody, V domains shown)
VH: QIQLVQSGPELKKPGETVKISCKASGYTFTDYSMHWVKQAPGKGLKWMGWINTETGEPTYADDFKGRFAFSLETSASTAYLQINNLKNEDTATYFCARNYDYDGYFDVWGAGTTVTVSS
VL: DIQMTQSPSSLSASLGGKVTITCKASQDINKYIAWYQHKPGKGPRLLIHYTSTLQPGIPSRFSGSGSGRDYSFSISNLEPEDIATYYCLQYDNLLFTFGSGTKLEIK
notes: Mouse hybridoma antibody; also called MuAIP12
Turning to B1, the IC50 (as a rule, the midpoint of a concentration-inhibition curve) in assay [1] is 4.4 µg/mL. Also, in [2], the Kd (commonly the equilibrium constant for the complex coming apart) worked out at 0.275 nM; the koff (usually the rate constant with which the complex falls apart) was determined as 0.000282 s⁻¹; the kon (as a rule, a measure of how fast the partners come together) was found to be 1.05e+06 M⁻¹ s⁻¹. In assay [3], the “inhibition of chemotaxis (IC50%) on recombinant IP-10, donor 215” value (“inhibition of chemotaxis (IC50%) … donor 215” below) is 0.13 µg/mL; the “inhibition of chemotaxis (IC50%) on recombinant IP-10, donor 318” value (shortened to “inhibition of chemotaxis (IC50%) … donor 318”) worked out at 0.041 µg/mL; the “inhibition of chemotaxis (IC50%) on recombinant IP-10, donor 1012” value (“inhibition of chemotaxis (IC50%) … donor 1012” for short) came to 0.091 µg/mL; the “inhibition of chemotaxis (IC50%) on recombinant IP-10, donor 1022” value was 0.135 µg/mL and 0.051 µg/mL and 0.086 µg/mL. The “inhibition of chemotaxis (IC50%) on recombinant IP-10, mean of donors” value (“inhibition of chemotaxis (IC50%) … of donors” for short) in assay [3] turned out to be 0.089 µg/mL. Also, the IC50 in assay [4] turned out to be 5.4 µg/mL. The IC50 in assay [5] came out at 6.6 µg/mL. In addition, the IC50 in assay [6] amounted to 4.2 µg/mL. In assay [7], the concentration for half-maximal inhibition (IC50) was 6.5 µg/mL.

B2: murine monoclonal antibody AIP13 (antibody, V domains shown)
VH: B1 VH with T55I, G104A
VL: B1 VL with S26D, K42R, I48L, Y50H, E81A, N93S
notes: Mouse hybridoma antibody; Mouse IgG1/kappa was used as its isotype control; also called MuAIP13
With B2, the IC50 in [8] worked out at 2.4 µg/mL. For the same molecule, the 50% inhibitory concentration (IC50) in assay [9] came to 1.8 µg/mL. In assay [2], the Kd was determined as 1.24 nM, the koff was determined as 0.000196 s⁻¹ and the kon was found to be 158000 M⁻¹ s⁻¹. The IC50 in assay [10] was 2.1 µg/mL. Further, in assay [3], the “inhibition of chemotaxis (IC50%) … donor 215” value was 0.26 µg/mL; the “inhibition of chemotaxis (IC50%) … donor 318” value amounted to 0.139 µg/mL; the “inhibition of chemotaxis (IC50%) … donor 1012” value came to 0.084 µg/mL; the “inhibition of chemotaxis (IC50%) on recombinant IP-10, donor 1022” value was 0.229 µg/mL and 0.154 µg/mL and 0.078 µg/mL. Moreover, in assay [3], the “inhibition of chemotaxis (IC50%) … of donors” value amounted to 0.157 µg/mL. Besides, the IC50 in [11] is 2.1 µg/mL.

B3: HuAIP12 G104A variant antibody (antibody, human IgG1, V domains shown)
VH: EVQLVQSGAEVKKPGATVKISCKVSGYTFTDYSMHWVRQAPGKGLKWMGWINTETGEPTYADDFKGRFTFTLDTSTSTAYMELSSLRSEDTAVYYCARNYDYDAYFDVWGQGTTVTVSS
VL: DIQMTQSPSSLSASVGDRVTITCKASQDINKYIAWYQQKPGKAPKLLIHYTSTLQPGIPSRFSGSGSGRDYTFTISSLQPEDIATYYCLQYDNLLFTFGQGTKLEIK
notes: Human IgG1/kappa (gamma-1 and kappa expression vectors), transiently expressed in 293-H cells
Consider B3, for which, in assay [12], the “fold faster off-rate (kd) against unmodified HuAIP12” value was roughly 2 fold, the “fold higher Kd against unmodified HuAIP12” value was greater than 20 fold, the “fold slower on-rate (ka) against unmodified HuAIP12” value was roughly 10 fold and the “fold weaker monovalent interaction against unmodified HuAIP12” value came to 20 fold. Further, in assay [13], the IC50 amounted to 59.5 µg/mL and the “fold decrease in binding affinity against unmodified HuAIP12” value stood at 14.5 fold. Besides, in assay [14], the Kd turned out to be 5.98 nM, the off-rate constant (koff) stood at 0.000784 s⁻¹ and the kon came to 131000 M⁻¹ s⁻¹.

B4: HuAIP12 T55I variant antibody (antibody, V domains shown)
VH: B3 VH with T55I, A104G
VL: B3 VL
Consider B4, for which, in assay [12], the “fold slower off-rate against unmodified HuAIP12” value was roughly 9 fold and the “fold stronger affinity against unmodified HuAIP12” value is greater than 9 fold. In [13], the IC50 came to 1.6 µg/mL. Moreover, in [14], the Kd stood at 0.0269 nM, the koff stood at 4.67e-05 s⁻¹ and the kon was found to be 1.66e+06 M⁻¹ s⁻¹.

B5: humanized monoclonal antibody HuAIP12 (antibody, human IgG1, V domains shown)
VH: B3 VH with A104G
VL: B3 VL
notes: Human IgG1/kappa; also called unmodified HuAIP12; Wild Type
For the molecule B5, the “fold difference of IC50 against MuAIP12” value in assay [15] is 2.5 fold; in [16], 2.9 fold; in [17] it was 2.2 fold; in assay [19], 2.4 fold; in assay [20], 2.4 fold. Further, the IC50 is 10.7 µg/mL in assay [1]; 3.1 µg/mL and 4.1 µg/mL in assay [13]; 13.5 µg/mL in [4]; 14.5 µg/mL in assay [5]; 10.3 µg/mL in assay [6]; 18.6 µg/mL in [7]. Further, the values for the Kd in [2] and in assay [14] were 0.472 nM and 0.251 nM, respectively. For the same molecule, the koff in assay [2] was determined as 0.000357 s⁻¹; in [14], 0.000381 s⁻¹. The values for the kon in assay [2] and in assay [14] were 755000 M⁻¹ s⁻¹ and 1.55e+06 M⁻¹ s⁻¹, respectively. Further, the “inhibition of chemotaxis (IC50%) … donor 215” value in assay [3] is 0.142 µg/mL. For the same molecule, the “inhibition of chemotaxis (IC50%) … donor 318” value in [3] came to 0.038 µg/mL. Moreover, in [3], the “inhibition of chemotaxis (IC50%) … donor 1012” value turned out to be 0.073 µg/mL. Moreover, the “inhibition of chemotaxis (IC50%) … of donors” value in assay [3] amounted to 0.086 µg/mL. Further, the “fold higher binding affinity than HuAIP13” value in assay [18] was roughly 2.6 fold. Also, the “IC50 of inhibition of IP-10 mediated chemotaxis” value in assay [21] is roughly 0.1 µg/mL.

B6: humanized monoclonal antibody HuAIP13 (antibody, human IgG1, V domains shown)
VH: B3 VH with T55I
VL: B3 VL with S26D, I48L, Y50H, N93S
notes: Human IgG1/kappa
As to B6, the “fold difference of IC50 against MuAIP13” value worked out at 2.9 fold in assay [22], 2.7 fold in assay [23], 2.8 fold in [24] and 2.7 fold in assay [25]. Moreover, the IC50 turned out to be 6.5 µg/mL in assay [8]; 4.8 µg/mL in assay [9]; 9.2 µg/mL in assay [13]; 5.8 µg/mL in assay [10]; 6.1 µg/mL in [11]. Moreover, the Kd in assay [2] is 1.24 nM. Besides, the off-rate constant (koff) in [2] was 0.000194 s⁻¹. In addition, the on-rate (kon) in assay [2] was 156000 M⁻¹ s⁻¹. Besides, the “inhibition of chemotaxis (IC50%) … donor 215” value in assay [3] is 0.139 µg/mL. The “inhibition of chemotaxis (IC50%) … donor 318” value in assay [3] was determined as 0.045 µg/mL. Moreover, in assay [3], the “inhibition of chemotaxis (IC50%) … donor 1012” value is 0.077 µg/mL. In addition, in [3], the “inhibition of chemotaxis (IC50%) … of donors” value came out at 0.086 µg/mL. For the same molecule, the “IC50 of inhibition of IP-10 mediated chemotaxis” value in [21] was roughly 0.1 µg/mL.

B7: 13H+12L antibody (antibody, V domains shown)
VH: B3 VH with T55I
VL: B3 VL
notes: HuAIP13 heavy chain with HuAIP12 light chain; human gamma-1/kappa
On to B7, for which the IC50 in assay [13] came to 13.6 µg/mL.

B8: 12H+13L antibody (antibody, V domains shown)
VH: B3 VH with A104G
VL: B3 VL with S26D, I48L, Y50H, N93S
notes: HuAIP12 heavy chain with HuAIP13 light chain; human gamma-1/kappa
On to B8, for which, in assay [13], the IC50 was 3 µg/mL.
